Laboratory results: patent US20040131610A1

Target: Fc gamma receptor (Fc(γ)R) on dendritic cells
Assay: cell-based or functional assay

DC uptake of apoptotic tumor cells: 300%
Substance: monoclonal antibody 3G4 (ATCC PTA 4545)
